Half-life of long colocalisation with co-diffusion, on DNA data for two substances are collected here from publication doi:10.1101/2023.06.13.544671.

This test has as its target RSC chromatin remodeling complex with Sth1-3xFlag-HaloTag (S. cerevisiae) (UniProt P32597). Briefly: two-colour single-molecule colocalisation on DNA (optical tweezers with confocal microscopy); RSC-JFX554 with ISW2-JFX650, or RSC-JFX554 with RSC-JFX650, diffusing on naked lambda DNA stretched to 5 pN; 10 mM Tris pH 7.4, 50 mM KCl, 3 mM MgCl2, 0.1 mg/ml BSA, Trolox; colocalisation threshold 0.31 um (RSC-RSC) and 0.29 um (RSC-ISW2); single exponential fits of dwell times.

“ISW2 chromatin remodeling complex with Isw2-3xFlag-HaloTag (from UniProt Q08773 1-1120)” came in with a half-life of long colocalisation with co-diffusion, on DNA of 0.68 s.
“RSC chromatin remodeling complex with Sth1-3xFlag-HaloTag (from UniProt P32597 1-1359)” displayed a half-life of long colocalisation with co-diffusion, on DNA of 0.7 s.
